From patent publication US20220110942A1 (SAINT LOUIS UNIVERSITY, published 2022)
Ends that are not written are not given here. fluorescein = fluorescein tag at the N-terminus

B1: NCoR ID1 corepressor peptide, N-terminus fluorescein-tagged (peptide)
peptide: fluorescein-RTHLITLADHICQIITQDFARN
notes: Bought from ThermoFisher Scientific; 500 nM in the FP assay; also called NCoR box 1
B2: Human GCNF (NR6A1) ligand binding domain (LBD), residues 248-480, hexahistidine-tagged (receptor, UniProt Q15406 248-480, looked up)
chain: PQSYSLIHQLLSAEDLEPLGTPMLIEDGYAVTQAELFALLCRLADELLFRQIAWIKKLPFFCELSIKDYTCLLSSTWQELILLSSLTVYSKQIFGELADVTAKYSPSDEELHRFSDEGMEVIERLIYLYHKFHQLKVSNEEYACMKAINFLNQDIRGLTSASQLEQLNKRYWYICQDFTEYKYTHQPNRFPDLMMCLPEIRYIAGKMVNVPLEQLPLLFKVVLHSCKTSVGKE
notes: range 248-480; Expressed in E. coli as a 263-amino acid hexahistidine-tagged construct (30.4 kDa); about 60 kDa homodimer by analytical size exclusion; The tag is placed first as a guess; also called GCNF LBD; wild-type GCNF; not shown: 3C protease-cleavable hexahistidine tag from pET45b(+)
B3: SMRT ID1 corepressor peptide, N-terminus fluorescein-tagged (peptide)
peptide: fluorescein-GHQRVVTLAQHISEVITQDYTRH
notes: Bought from ThermoFisher Scientific; 500 nM in the FP assay; also called SMRT box 1
B4: NCoR ID2 corepressor peptide, N-terminus fluorescein-tagged (peptide)
peptide: fluorescein-DPASNLGLEDIIRKALMGSFDDK
notes: Bought from ThermoFisher Scientific; 500 nM in the FP assay; also called NCoR box 2

How the values were obtained:
[1] = target: B2; experiment: fluorescence polarization, 500 nM fluorescein-tagged peptide, GCNF LBD titrated 0-70 µM
Method: GCNF protein binds directly to DR0 sites or direct repeats of AGGTCA with no spacing between half sites in the promoters of both the Oct4 and Nanog genes and is thought to repress target genes via interactions with corepressors SMRT and NCoR (Furhmann et al., 2001; Gu et al., 2005; Yan et al., 2000). To determine whether ligand binding can affect the interaction between GCNF and its associated corepressor proteins SMRT and NCoR, a fluorescence polarization assay was performed to monitor the ability of ligands to affect corepressor peptide recruitment to the GCNF LBD. Since GCNF LBD was predicted to interact with transcriptional corepressors NCoR and SMRT via its N-terminal portion (Furhmann et al., 2001; Yan et al., 1997; Yan et al., 2000), an FP assay was initially performed consisting of different fluorescein-tagged peptides derived from these corepressors. […] Meanwhile, titrating 34, but not ligand 80, increased the recruitment of SMRT ID2, the tighter binding corepressor peptide (FIG. 4C). […]
(§1) FP Assay. Fluorescence polarization (FP) assays were performed in triplicate on a 384-well Corning 3820 black opaque plate using a Biotek Synergy Neo2 HTS multimode microplate reader at excitation and emission wavelengths of 485 nm and 538 nm, respectively. Data were analyzed and plotted using GraphPad Prism as mean±SEM.

[2] = target: the molecule itself; experiment: analytical size exclusion chromatography with SDS-PAGE of the pooled fractions
[3] = target: B2; experiment: fluorescence polarization, 500 nM fluorescein-tagged peptide, GCNF LBD titrated
Method: as §1
For the corepressor peptide FP binding assay, 70.0, 35.0, 17.5, 8.8, 4.4, 2.2, 1.1, 0.55, 0.27, 0.14, and 0 μM of GCNF LBD was mixed with 500 nM N-terminus fluorescein-tagged corepressor peptides NCoR ID1 ([…] (SEQ ID NO: 1)), NCoR ID2 ([…] (SEQ ID NO: 2)), SMRT ID1 ([…] (SEQ ID NO: 3)), or SMRT ID2 ([…] (SEQ ID NO: 4)) (ThermoFisher Scientific) in assay buffer containing 50 mM HEPES (pH 7.5), 50 mM KCl, 5 mM TCEP, 0.5 mM EDTA and 0.005% Tween20. The relative polarization was plotted against the GCNF LBD concentration and fitted via nonlinear regression (one site specific binding with Hill slope) to extract KD.

Binder	binding result [3]	further results
B1		Kd [1]: 32 µM
B2		binding result [2]: binds
B3	no binding (tested: GCNF LBD up to 70.0 µM)	
B4	no binding (tested: GCNF LBD up to 70.0 µM)	
